According to patent publication US20100222258A1 (KABUSHIKI KAISHA HAYASHIBARA SEIBUTSU KAGAKU KENKYUJO, published 2010):

T1: TNF-R1 (a protein having the amino acid sequence, Accession No. M58286 registered at GENBANK) (UniProt P19438 30-211, limits assumed)
T1 construct: also called TNF receptor having a molecular weight of 55 kilo daltons
T1 sequence (looked up): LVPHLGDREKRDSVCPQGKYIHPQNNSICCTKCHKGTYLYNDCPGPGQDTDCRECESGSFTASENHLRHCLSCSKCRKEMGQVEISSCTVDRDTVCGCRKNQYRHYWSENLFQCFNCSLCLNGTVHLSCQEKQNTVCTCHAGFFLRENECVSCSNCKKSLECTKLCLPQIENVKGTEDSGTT

T2: TNF-R2 (a protein having the amino acid sequence, Accession No. M55994 registered at GENBANK) (UniProt P20333 23-257, limits assumed)
T2 construct: also called TNF receptor with 75 kilo daltons
T2 sequence (looked up): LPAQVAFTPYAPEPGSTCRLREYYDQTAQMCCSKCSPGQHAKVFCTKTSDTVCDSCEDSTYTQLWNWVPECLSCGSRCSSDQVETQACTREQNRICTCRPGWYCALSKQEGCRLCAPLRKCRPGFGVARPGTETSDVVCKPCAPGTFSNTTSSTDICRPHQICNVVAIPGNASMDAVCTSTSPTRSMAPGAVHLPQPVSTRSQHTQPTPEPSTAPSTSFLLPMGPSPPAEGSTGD


Experiments:
[1] = target: T1, TNF-R1 (a protein having the amino acid …); test: SPR (BIACORE 2000), receptor on sensor tip; grade 3 = 0.5 to 2 times that of recombinant TNF-α
Description: (§1) Using the above detector based on surface plasmon resonance effect again, the resulting clones binding to TNF-R1 (or TNF-R2) were subjected to the remaining sensor tip conjugated with TNF-R2 (or TNF-R1) to measure receptor binding affinity and select clones having a variation of receptor binding affinity. […] The resulting DNAs were digested with restrict enzymes NdeI and BamHI to obtain DNA fragments. The resulting DNA fragments were introduced into a plasmid vector containing T7 promoter region, T7 terminator region, ampicillin resistant gene region and ColE1/Ori region (product name “pET-3a”, manufactured by “Novagen®” (EMD Biosciences, Inc.)) at the position of the above restriction sites. The resulting plasmid was introduced into E. coli BL21DE3 strain to obtain a transformed E. coli for producing the TNF mutant proteins. The obtained transformed E. coli was cultured according to usual method and centrifuged to collect E. coli pellet. The resulting pellet was washed twice with TES buffer (pH 8.0) (20 mM Tris-HCl, 10 mM ethylene diamine tetraacetic acid and 0.5 M sodium chloride) and admixed with TES buffer (pH 8.0) containing 0.2 mg/ml lysozyme. The resulting suspension was sonicated according to usual manner, and centrifuged to collect a precipitate containing the produced TNF mutant protein. The resulting precipitate was treated three times in a manner of admixing with TES buffer containing 1 (w/w) % Triton X-100, removed from supernatant by centrifuging, admixed with 50 mM Tris-HCl (pH 7.0) containing 8 M guanidine hydrochloride and 50 mM dithiothreitol, with stirring for 16 hours at ambient temperature under shielded condition, and centrifuged to collect a supernatant. The resulting supernatant was gently admixed with 100 time volumes of a aqueous solution containing 1 M Tris, 0.9 (w/v) % sodium chloride, 0.4 M L-arginine chloride, 2.5 mM reduced glutathione, 0.5 mM oxidized glutathione and 0.05 (w/v) % Tween 20, and kept at 4° C. for 16 hours.

[2] = target: T2, TNF-R2 (a protein having the amino acid …); test: SPR (BIACORE 2000), receptor on sensor tip; grade 2 = 0.5 to 0.1 time that of recombinant TNF-α
Description: as §1

[3] = target: T1, TNF-R1 (a protein having the amino acid …); test: as above
Description: as §1

[4] = target: T2, TNF-R2 (a protein having the amino acid …); test: SPR (BIACORE 2000), receptor on sensor tip; grade 1 = 0.001 to 0.1 time that of recombinant TNF-α
Description: as §1

[5] = target: T1, TNF-R1 (a protein having the amino acid …); test: SPR (BIACORE 2000), receptor on sensor tip; grade 4 = two times or more that of recombinant TNF-α
Description: as §1

binding affinity relative to recombinant TNF-α [1] [fold]	binding affinity relative to recombinant TNF-α [2] [fold]	binding affinity relative to recombinant TNF-α [3] [fold]	binding affinity relative to recombinant TNF-α [4] [fold]	binding affinity relative to recombinant TNF-α [5] [fold]	Binder
0.5 to 2	0.1 to 0.5				TNF mutant protein of clone No. 34 (ligand, Mutant of lysine-replaced TNF, made in E. coli) VRSSSRTPSDMPVAHVVANPQAEGQLQWLNRRANALLANGVELRDNQLVVPSEGLYLIYSQVLFSGQGCPSTHVLLTHTISRISADYPHPVNLLSAIRSPCQRETPEGAEANPWYEPIYLGGVFQLEPGDRLSAEINRPDYLDFAESGQVYFGIIAL
0.5 to 2	0.1 to 0.5				TNF mutant protein of clone No. 27 (ligand, Mutant of lysine-replaced TNF, made in E. coli) VRSSSRTPSDMPVAHVVANPQAEGQLQWLNRRANALLANGVELRDNQLVVPSEGLYLIYSQVLFSGQGCPSTHVLLTHTISRITPAYPRPVNLLSAIRSPCQRETPEGAEANPWYEPIYLGGVFQLEPGDRLSAEINRPDYLDFAESGQVYFGIIAL
	0.1 to 0.5			≥ 2	TNF mutant protein of clone No. 32 (ligand, Mutant of lysine-replaced TNF, made in E. coli) VRSSSRTPSDMPVAHVVANPQAEGQLQWLNRRANALLANGVELRDNQLVVPSEGLYLIYSQVLFSGQGCPSTHVLLTHTISRITDRYSSPVNLLSAIRSPCQRETPEGAEANPWYEPIYLGGVFQLEPGDRLSAEINRPDYLDFAESGQVYFGIIAL
0.5 to 2	0.1 to 0.5				TNF mutant protein of clone No. 30 (ligand, Mutant of lysine-replaced TNF, made in E. coli) VRSSSRTPSDMPVAHVVANPQAEGQLQWLNRRANALLANGVELRDNQLVVPSEGLYLIYSQVLFSGQGCPSTHVLLTHTISRITPGYPSPVNLLSAIRSPCQRETPEGAEANPWYEPIYLGGVFQLEPGDRLSAEINRPDYLDFAESGQVYFGIIAL
0.5 to 2	0.1 to 0.5				TNF mutant protein of clone No. 20 (ligand, Mutant of lysine-replaced TNF, made in E. coli) VRSSSRTPSDMPVAHVVANPQAEGQLQWLNRRANALLANGVELRDNQLVVPSEGLYLIYSQVLFSGQGCPSTHVLLTHTISRISSAYASPVNLLSAIRSPCQRETPEGAEANPWYEPIYLGGVFQLEPGDRLSAEINRPDYLDFAESGQVYFGIIAL

The next lines start with the binder.

Binder	binding affinity relative to recombinant TNF-α [1] [fold]	binding affinity relative to recombinant TNF-α [2] [fold]	binding affinity relative to recombinant TNF-α [3] [fold]	binding affinity relative to recombinant TNF-α [4] [fold]	binding affinity relative to recombinant TNF-α [5] [fold]
TNF mutant protein of clone No. 2 (ligand, Mutant of lysine-replaced TNF, made in E. coli) VRSSSRTPSDMPVAHVVANPQAEGQLQWTNGYANALLANGVELRDNQLVVPSEGLYLIYSQVLFSGQGCPSTHVLLTHTISRIAVSYQTPVNLLSAIRSPCQRETPEGAEANPWYEPIYLGGVFQLEPGDRLSAEINRPDYLDFAESGQVYFGIIAL	0.5 to 2	0.1 to 0.5			
TNF mutant protein of clone No. 9 (ligand, Mutant of lysine-replaced TNF, made in E. coli) VRSSSRTPSDMPVAHVVANPQAEGQLQWSNPMANALLANGVELRDNQLVVPSEGLYLIYSQVLFSGQGCPSTHVLLTHTISRIAVSYQTPVNLLSAIRSPCQRETPEGAEANPWYEPIYLGGVFQLEPGDRLSAEINRPDYLDFANPGQVYFGIIAL			0.1 to 0.5	0.001 to 0.1	
TNF mutant protein of clone No. 7 (ligand, Mutant of lysine-replaced TNF, made in E. coli) VRSSSRTPSDMPVAHVVANPQAEGQLQWHNNTANALLANGVELRDNQLVVPSEGLYLIYSQVLFSGQGCPSTHVLLTHTISRIAVSYQTPVNLLSAIRSPCQRETPEGAEANPWYEPIYLGGVFQLEPGDRLSAEINRPDYLDFDSNGQVYFGIIAL			0.1 to 0.5	0.001 to 0.1	
TNF mutant protein of clone No. 16 (ligand, Mutant of lysine-replaced TNF, made in E. coli) VRSSSRTPSDMPVAHVVANPQAEGQLQWLNRRANALLANGVELRDNQLVVPSEGLYLIYSQVLFSGQGCPSTHVLLTHTISRISSTYPDPVNLLSAIRSPCQRETPEGAEANPWYEPIYLGGVFQLEPGDRLSAEINRPDYLDFAESGQVYFGIIAL		0.1 to 0.5			≥ 2
TNF mutant protein of clone No. 8 (ligand, Mutant of lysine-replaced TNF, made in E. coli) VRSSSRTPSDMPVAHVVANPQAEGQLQWRNEHANALLANGVELRDNQLVVPSEGLYLIYSQVLFSGQGCPSTHVLLTHTISRIAVSYQTPVNLLSAIRSPCQRETPEGAEANPWYEPIYLGGVFQLEPGDRLSAEINRPDYLDFNNAGQVYFGIIAL			0.1 to 0.5	0.001 to 0.1	
